In the assay the target is T1, Human CD40 ligand (BioLegend) (human, UniProt P29965 113-261, limits assumed).
T1 construct: Coated on the ELISA plate at 2 ug/ml; also called CD154; gp39
T1 sequence (looked up): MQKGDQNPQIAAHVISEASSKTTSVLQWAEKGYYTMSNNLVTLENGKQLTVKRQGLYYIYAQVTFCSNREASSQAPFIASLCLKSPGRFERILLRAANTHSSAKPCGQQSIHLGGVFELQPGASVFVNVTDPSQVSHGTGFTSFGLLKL
Description: ELISA on plate-immobilized human CD40 ligand (2 ug/ml coat); serial dilutions of HEK293 transfection supernatant; detection with HRP goat anti-human IgG Fc; x axis is fold dilution, no concentration given. A general note: ELISA stands for enzyme-linked immunosorbent assay.

B1: hVK3LP-[hCD40EC E64Y-K81T-P85Y]-(g4s)4-[SSShinge-P238S Fc]-NGS-[PON1 Q192K] (Fc fusion)
chain: EPPTACREKQYLINSQCCSLCQPGQKLVSDCTEFTETECLPCGYSEFLDTWNRETHCHQHTYCDYNLGLRVQQKGTSETDTICTCEEGWHCTSEACESCVLHRSCSPGFGVKQIATGVSDTICEPCPVGFFSNVSSAFEKCHPWTSCETKDLVVQQAGTNKTDVVCGPDLSGGGGSGGGGSGGGGSGGGGSTGLEPKSSDKTHTSPPSPAPELLGGSSVFLFPPKPKDTLMISRTPEVTCVVVDVSHEDPEVKFNWYVDGVEVHNAKTKPREEQYNSTYRVVSVLTVLHQDWLNGKEYKCKVSNKALPASIEKTISKAKGQPREPQVYTLPPSRDELTKNQVSLTCLVKGFYPSDIAVEWESNGQPENNYKTTPPVLDSDGSFFLYSKLTVDKSRWQQGNVFSCSVMHEALHNHYTQKSLSLSPGKVDGASSPVNVSSPSVQDILFRNHQSSYQTRLNALREVQPVELPNCNLVKGIETGSEDLEILPNGLAFISSGLKYPGIKSFNPNSPGKILLMDLNEEDPTVLELGITGSKFDVSSFNPHGISTFTDEDNAMYLLVVNHPDAKSTVELFKFQEEEKSLLHLKTIRHKLLPNLNDIVAVGPEHFYGTNDHYFLDPYLKSWEMYLGLAWSYVVYYSPSEVRVVAEGFDFANGINISPDGKYVYIAELLAHKIHVYEKHANWTLTPLKSLDFNTLVDNISVDPETGDLWVGCHPNGMKIFFYDSENPPASEVLRIQNILTEEPKVTQVYAENGTVLQGSTVASVYKGKLLIGTVFHKALYCEL
notes: Tested as unpurified HEK293 transfection supernatant; also called CD40TM-Fc-P1-K; CD40-Fc-PON1 fusion protein
For the molecule B1, the binding result is “binds”.

B2: [hCD40 EC]-(g4s)4-[SSShinge-P238S Fc] (wild-type CD40-Fc) (Fc fusion)
chain: EPPTACREKQYLINSQCCSLCQPGQKLVSDCTEFTETECLPCGESEFLDTWNRETHCHQHKYCDPNLGLRVQQKGTSETDTICTCEEGWHCTSEACESCVLHRSCSPGFGVKQIATGVSDTICEPCPVGFFSNVSSAFEKCHPWTSCETKDLVVQQAGTNKTDVVCGPDLSGGGGSGGGGSGGGGSGGGGSTGLEPKSSDKTHTSPPSPAPELLGGSSVFLFPPKPKDTLMISRTPEVTCVVVDVSHEDPEVKFNWYVDGVEVHNAKTKPREEQYNSTYRVVSVLTVLHQDWLNGKEYKCKVSNKALPASIEKTISKAKGQPREPQVYTLPPSRDELTKNQVSLTCLVKGFYPSDIAVEWESNGQPENNYKTTPPVLDSDGSFFLYSKLTVDKSRWQQGNVFSCSVMHEALHNHYTQKSLSLSPGK
notes: Tested as HEK293 transfection supernatant; also called CD40WT-Fc
Turning to B2, the binding result was “binds”.

These data come from patent US20250145977A1 (THERIPION, published 2025).
